T1: DLC1 RhoGAP domain (residues 1074-1283), His6-tagged (human, UniProt Q96QB1 1074-1283)
T1 construct: RhoGAP domain of human DLC1A, residues 1074-1283 of UniProt Q96QB1 isoform 2; Vector pET28-MHL; also called DLC1A; His6-DLC1; source: E. coli BL21(DE3) or Rosetta(DE3), purified (Ni-NTA, SEC)
T1 sequence (looked up): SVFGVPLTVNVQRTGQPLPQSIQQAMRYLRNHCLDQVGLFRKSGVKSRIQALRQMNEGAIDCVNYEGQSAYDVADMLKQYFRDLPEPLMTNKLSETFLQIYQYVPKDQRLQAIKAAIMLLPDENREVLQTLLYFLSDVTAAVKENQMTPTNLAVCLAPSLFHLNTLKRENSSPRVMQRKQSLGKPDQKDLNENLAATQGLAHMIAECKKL


Key:
[1] = target: DLC1 RhoGAP (Homo sapiens) (UniProt Q96QB1); test: ITC; settings: cited from earlier work
[2] = target: DLC1 RhoGAP (Homo sapiens) (UniProt Q96QB1); test: kinetics; settings: cited from earlier work
[3] = target: T1, DLC1 RhoGAP domain (residues …); test: crystal structure; copurified complex of DLC1 RhoGAP with p120RasGAP SH3 at 18 mg/ml; 0.2 M magnesium nitrate, 16.5% PEG 3350, hanging drops, ambient temperature (~22 °C); 3.2 Å, four copies of the complex in the asymmetric unit; settings: both partners purified

Sequence of p120RasGAP SH3 (P20936 276-344): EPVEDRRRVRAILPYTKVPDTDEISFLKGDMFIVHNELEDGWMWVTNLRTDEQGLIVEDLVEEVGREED
Sequence of DLC1 RhoGAP (Homo sapiens) (Q96QB1 1075-1287): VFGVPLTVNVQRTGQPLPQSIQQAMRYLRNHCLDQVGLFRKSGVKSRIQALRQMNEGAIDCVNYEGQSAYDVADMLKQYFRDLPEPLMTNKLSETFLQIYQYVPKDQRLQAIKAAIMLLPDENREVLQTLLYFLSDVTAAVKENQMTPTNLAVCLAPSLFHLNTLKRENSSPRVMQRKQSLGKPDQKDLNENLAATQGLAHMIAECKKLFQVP

binding result [3] | Molecule | Kd [1] [nM] | Ki [2] [nM]
 | p120RasGAP SH3 (from UniProt P20936) | 600 | 600
binds | p120RasGAP SH3 domain (residues 281-341) (domain or fragment, human, UniProt P20936 281-341, looked up, SH3 domain of human p120RasGAP, residues 281-341 of UniProt P20936; Vector pGEX-6p1; also called SH3 WT; RASA1; source: E. coli BL21(DE3) or Rosetta(DE3), purified (glutathione Sepharose, PreScission cleavage on beads, SEC)) RRRVRAILPYTKVPDTDEISFLKGDMFIVHNELEDGWMWVTNLRTDEQGLIVEDLVEEVGR |  | 
